Test results as given in IntAct's records for PubMed 25910212.

B1: PiggyBac transposable element-derived protein 1 (Homo sapiens), Q96JS3 (parent)
chain: MYEALPGPAPENEDGLVKVKEEDPTWEQVCNSQEGSSHTQEICRLRFRHFCYQEAHGPQEALAQLRELCHQWLRPEMHTKEQIMELLVLEQFLTILPKELQPCVKTYPLESGEEAVTVLENLETGSGDTGQQASVYIQGQDMHPMVAEYQGVSLECQSLQLLPGITTLKCEPPQRPQGNPQEVSGPVPHGSAHLQEKNPRDKAVVPVFNPVRSQTLVKTEEETAQAVAAEKWSHLSLTRRNLCGNSAQETVMSLSPMTEEIVTKDRLFKAKQETSEEMEQSGEASGKPNRECAPQIPCSTPIATERTVAHLNTLKDRHPGDLWARMHISSLEYAAGDITRKGRKKDKARVSELLQGLSFSGDSDVEKDNEPEIQPAQKKLKVSCFPEKSWTKRDIKPNFPSWSALDSGLLNLKSEKLNPVELFELFFDDETFNLIVNETNNYASQKNVSLEVTVQEMRCVFGVLLLSGFMRHPRREMYWEVSDTDQNLVRDAIRRDRFELIFSNLHFADNGHLDQKDKFTKLRPLIKQMNKNFLLYAPLEEYYCFDKSMCECFDSDQFLNGKPIRIGYKIWCGTTTQGYLVWFEPYQEESTMKVDEDPDLGLGGNLVMNFADVLLERGQYPYHLCFDSFFTSVKLLSALKKKGVRATGTIRENRTEKCPLMNVEHMKKMKRGYFDFRIEENNEIILCRWYGDGIISLCSNAVGIEPVNEVSCCDADNEEIPQISQPSIVKVYDECKEGVAKMDQIISKYRVRIRSKKWYSILVSYMIDVAMNNAWQLHRACNPGASLDPLDFRRFVAHFYLEHNAHLSD
B2: Multifunctional procollagen lysine hydroxylase and glycosyltransferase LH3 (Homo sapiens), O60568 (parent)
chain: MTSSGPGPRFLLLLPLLLPPAASASDRPRGRDPVNPEKLLVITVATAETEGYLRFLRSAEFFNYTVRTLGLGEEWRGGDVARTVGGGQKVRWLKKEMEKYADREDMIIMFVDSYDVILAGSPTELLKKFVQSGSRLLFSAESFCWPEWGLAEQYPEVGTGKRFLNSGGFIGFATTIHQIVRQWKYKDDDDDQLFYTRLYLDPGLREKLSLNLDHKSRIFQNLNGALDEVVLKFDRNRVRIRNVAYDTLPIVVHGNGPTKLQLNYLGNYVPNGWTPEGGCGFCNQDRRTLPGGQPPPRVFLAVFVEQPTPFLPRFLQRLLLLDYPPDRVTLFLHNNEVFHEPHIADSWPQLQDHFSAVKLVGPEEALSPGEARDMAMDLCRQDPECEFYFSLDADAVLTNLQTLRILIEENRKVIAPMLSRHGKLWSNFWGALSPDEYYARSEDYVELVQRKRVGVWNVPYISQAYVIRGDTLRMELPQRDVFSGSDTDPDMAFCKSFRDKGIFLHLSNQHEFGRLLATSRYDTEHLHPDLWQIFDNPVDWKEQYIHENYSRALEGEGIVEQPCPDVYWFPLLSEQMCDELVAEMEHYGQWSGGRHEDSRLAGGYENVPTVDIHMKQVGYEDQWLQLLRTYVGPMTESLFPGYHTKARAVMNFVVRYRPDEQPSLRPHHDSSTFTLNVALNHKGLDYEGGGCRFLRYDCVISSPRKGWALLHPGRLTHYHEGLPTTWGTRYIMVSFVDP
partner: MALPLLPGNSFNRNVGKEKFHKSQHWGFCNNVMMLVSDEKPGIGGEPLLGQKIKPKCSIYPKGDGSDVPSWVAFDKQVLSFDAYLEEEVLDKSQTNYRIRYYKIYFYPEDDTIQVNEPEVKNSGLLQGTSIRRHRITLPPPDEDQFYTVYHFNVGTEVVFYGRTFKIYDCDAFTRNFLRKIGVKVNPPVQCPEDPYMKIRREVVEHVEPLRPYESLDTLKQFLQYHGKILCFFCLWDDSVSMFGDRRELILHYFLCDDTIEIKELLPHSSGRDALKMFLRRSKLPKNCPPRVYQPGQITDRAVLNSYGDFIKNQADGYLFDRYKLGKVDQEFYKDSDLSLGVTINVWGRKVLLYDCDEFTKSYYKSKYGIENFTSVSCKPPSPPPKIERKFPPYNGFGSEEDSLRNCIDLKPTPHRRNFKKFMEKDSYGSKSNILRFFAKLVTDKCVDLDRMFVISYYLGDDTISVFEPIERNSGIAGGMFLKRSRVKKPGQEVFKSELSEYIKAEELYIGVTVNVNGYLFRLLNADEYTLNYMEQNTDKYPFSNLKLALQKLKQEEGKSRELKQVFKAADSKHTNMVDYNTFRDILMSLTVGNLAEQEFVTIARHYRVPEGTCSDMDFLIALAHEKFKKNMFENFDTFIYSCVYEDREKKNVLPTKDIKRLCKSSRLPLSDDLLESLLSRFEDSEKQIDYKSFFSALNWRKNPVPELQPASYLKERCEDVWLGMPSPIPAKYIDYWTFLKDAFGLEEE
B3: CD151 antigen (Homo sapiens), P48509 (parent)
chain: MGEFNEKKTTCGTVCLKYLLFTYNCCFWLAGLAVMAVGIWTLALKSDYISLLASGTYLATAYILVVAGTVVMVTGVLGCCATFKERRNLLRLYFILLLIIFLLEIIAGILAYAYYQQLNTELKENLKDTMTKRYHQPGHEAVTSAVDQLQQEFHCCGSNNSQDWRDSEWIRSQEAGGRVVPDSCCKTVVALCGQRDHASNIYKVEGGCITKLETFIQEHLRVIGAVGIGIACVQVFGMIFTCCLYRSLKLEHY
B4: EF-hand domain-containing protein 1 (Homo sapiens), Q5JVL4 (parent)
chain: MVSNPVHGLPFLPGTSFKDSTKTAFHRSQTLSYRNGYAIVRRPTVGIGGDRLQFNQLSQAELDELASKAPVLTYGQPKQAPPADFIPAHVAFDKKVLKFDAYFQEDVPMSTEEQYRIRQVNIYYYLEDDSMSVIEPVVENSGILQGKLIKRQRLAKNDRGDHYHWKDLNRGINITIYGKTFRVVDCDQFTQVFLESQGIELNPPEKMALDPYTELRKQPLRKYVTPSDFDQLKQFLTFDKQVLRFYAIWDDTDSMYGECRTYIIHYYLMDDTVEIREVHERNDGRDPFPLLMNRQRVPKVLVENAKNFPQCVLEISDQEVLEWYTAKDFIVGKSLTILGRTFFIYDCDPFTRRYYKEKFGITDLPRIDVSKREPPPVKQELPPYNGFGLVEDSAQNCFALIPKAPKKDVIKMLVNDNKVLRYLAVLESPIPEDKDRRFVFSYFLATDMISIFEPPVRNSGIIGGKYLGRTKVVKPYSTVDNPVYYGPSDFFIGAVIEVFGHRFIILDTDEYVLKYMESNAAQYSPEALASIQNHVRKREAPAPEAESKQTEKDPGVQELEALIDTIQKQLKDHSCKDNIREAFQIYDKEASGYVDRDMFFKICESLNVPVDDSLVKELIRMCSHGEGKINYYNFVRAFSN
partner: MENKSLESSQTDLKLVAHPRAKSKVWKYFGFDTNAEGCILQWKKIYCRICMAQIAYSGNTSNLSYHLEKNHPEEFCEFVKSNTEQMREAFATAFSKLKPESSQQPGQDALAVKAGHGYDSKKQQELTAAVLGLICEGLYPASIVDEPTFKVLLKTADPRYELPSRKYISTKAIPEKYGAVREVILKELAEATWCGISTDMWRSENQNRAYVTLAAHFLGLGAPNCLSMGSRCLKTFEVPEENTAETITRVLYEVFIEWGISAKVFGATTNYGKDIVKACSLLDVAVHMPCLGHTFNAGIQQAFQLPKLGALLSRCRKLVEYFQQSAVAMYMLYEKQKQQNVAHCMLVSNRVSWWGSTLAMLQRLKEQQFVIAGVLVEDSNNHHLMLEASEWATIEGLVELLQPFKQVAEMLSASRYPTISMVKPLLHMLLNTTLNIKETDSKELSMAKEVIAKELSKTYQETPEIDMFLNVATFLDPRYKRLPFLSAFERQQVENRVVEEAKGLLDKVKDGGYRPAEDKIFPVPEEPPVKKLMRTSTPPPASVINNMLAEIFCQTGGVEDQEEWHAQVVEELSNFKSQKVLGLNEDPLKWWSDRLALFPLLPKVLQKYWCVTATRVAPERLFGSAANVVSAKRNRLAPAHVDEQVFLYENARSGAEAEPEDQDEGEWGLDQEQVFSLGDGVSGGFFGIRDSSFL
B5: Adiponectin (Homo sapiens), Q15848 (parent)
chain: MLLLGAVLLLLALPGHDQETTTQGPGVLLPLPKGACTGWMAGIPGHPGHNGAPGRDGRDGTPGEKGEKGDPGLIGPKGDIGETGVPGAEGPRGFPGIQGRKGEPGEGAYVYRSAFSVGLETYVTIPNMPIRFTKIFYNQQNHYDGSTGKFHCNIPGLYYFAYHITVYMKDVKVSLFKKDKAMLFTYDQYQENNVDQASGSVLLHLEVGDQVWLQVYGEGERNGLYADNDNDSTFTGFLLYHDTN
B6: Basal cell adhesion molecule (Homo sapiens), P50895 (parent)
chain: MEPPDAPAQARGAPRLLLLAVLLAAHPDAQAEVRLSVPPLVEVMRGKSVILDCTPTGTHDHYMLEWFLTDRSGARPRLASAEMQGSELQVTMHDTRGRSPPYQLDSQGRLVLAEAQVGDERDYVCVVRAGAAGTAEATARLNVFAKPEATEVSPNKGTLSVMEDSAQEIATCNSRNGNPAPKITWYRNGQRLEVPVEMNPEGYMTSRTVREASGLLSLTSTLYLRLRKDDRDASFHCAAHYSLPEGRHGRLDSPTFHLTLHYPTEHVQFWVGSPSTPAGWVREGDTVQLLCRGDGSPSPEYTLFRLQDEQEEVLNVNLEGNLTLEGVTRGQSGTYGCRVEDYDAADDVQLSKTLELRVAYLDPLELSEGKVLSLPLNSSAVVNCSVHGLPTPALRWTKDSTPLGDGPMLSLSSITFDSNGTYVCEASLPTVPVLSRTQNFTLLVQGSPELKTAEIEPKADGSWREGDEVTLICSARGHPDPKLSWSQLGGSPAEPIPGRQGWVSSSLTLKVTSALSRDGISCEASNPHGNKRHVFHFGTVSPQTSQAGVAVMAVAVSVGLLLLVVAVFYCVRRKGGPCCRQRREKGAPPPGEPGLSHSGSEQPEQTGLLMGGASGGARGGSGGFGDEC
partner: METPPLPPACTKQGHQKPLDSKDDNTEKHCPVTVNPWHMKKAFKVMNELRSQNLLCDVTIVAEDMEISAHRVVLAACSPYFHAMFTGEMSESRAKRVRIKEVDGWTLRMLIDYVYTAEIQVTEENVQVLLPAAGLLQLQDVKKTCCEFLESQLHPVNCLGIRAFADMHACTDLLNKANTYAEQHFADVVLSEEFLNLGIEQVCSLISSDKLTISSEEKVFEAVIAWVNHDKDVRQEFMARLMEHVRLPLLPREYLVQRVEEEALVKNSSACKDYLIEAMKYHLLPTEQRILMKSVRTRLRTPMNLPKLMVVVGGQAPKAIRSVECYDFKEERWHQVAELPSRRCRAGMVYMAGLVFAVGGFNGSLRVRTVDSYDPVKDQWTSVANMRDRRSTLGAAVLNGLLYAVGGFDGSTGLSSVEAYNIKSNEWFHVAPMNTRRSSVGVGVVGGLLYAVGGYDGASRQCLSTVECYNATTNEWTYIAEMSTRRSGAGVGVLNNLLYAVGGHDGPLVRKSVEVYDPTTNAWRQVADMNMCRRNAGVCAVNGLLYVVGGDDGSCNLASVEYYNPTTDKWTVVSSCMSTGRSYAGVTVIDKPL

Variants of: B1
Conditions: with NR4A1, P22736-2
Chain of NR4A1, P22736-2 (P22736 other isoform, or with tags, fused parts or gaps): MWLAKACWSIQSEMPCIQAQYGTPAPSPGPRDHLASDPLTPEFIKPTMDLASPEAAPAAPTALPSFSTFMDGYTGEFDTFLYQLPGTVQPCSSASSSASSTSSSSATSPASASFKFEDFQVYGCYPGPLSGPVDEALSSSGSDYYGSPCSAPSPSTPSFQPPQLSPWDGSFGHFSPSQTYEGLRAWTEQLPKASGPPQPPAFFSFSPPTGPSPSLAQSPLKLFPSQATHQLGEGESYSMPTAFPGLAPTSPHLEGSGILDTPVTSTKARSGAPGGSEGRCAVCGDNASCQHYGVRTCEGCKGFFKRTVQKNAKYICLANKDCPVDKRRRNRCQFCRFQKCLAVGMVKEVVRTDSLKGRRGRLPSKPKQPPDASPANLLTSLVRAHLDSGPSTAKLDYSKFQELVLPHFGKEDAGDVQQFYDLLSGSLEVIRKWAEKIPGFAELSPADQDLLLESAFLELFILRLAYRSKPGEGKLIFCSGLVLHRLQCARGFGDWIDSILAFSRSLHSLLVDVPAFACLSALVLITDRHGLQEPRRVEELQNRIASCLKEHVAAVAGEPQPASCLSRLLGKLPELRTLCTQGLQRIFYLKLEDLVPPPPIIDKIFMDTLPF

| Variant | effect of a mutation on the interaction |
| --- | --- |
| I678V | with no effect |

Variants of: B1
Conditions: with znf24_human ZNF24, P17028
Chain of znf24_human ZNF24, P17028 (P17028 whole entry): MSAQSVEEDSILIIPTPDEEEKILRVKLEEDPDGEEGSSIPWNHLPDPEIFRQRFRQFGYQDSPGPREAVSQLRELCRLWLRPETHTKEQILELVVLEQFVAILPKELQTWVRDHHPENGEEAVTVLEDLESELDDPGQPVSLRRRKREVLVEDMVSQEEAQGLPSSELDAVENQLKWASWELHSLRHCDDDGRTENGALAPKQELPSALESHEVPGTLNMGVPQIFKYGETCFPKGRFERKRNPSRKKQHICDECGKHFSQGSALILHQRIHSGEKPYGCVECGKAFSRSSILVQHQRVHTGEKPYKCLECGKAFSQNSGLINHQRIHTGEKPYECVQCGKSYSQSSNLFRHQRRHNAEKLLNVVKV

| Variant | effect of a mutation on the interaction |
| --- | --- |
| I678V | with no effect |

Variants of: B1
Conditions: with zn496_human ZNF496, Q96IT1
Chain of zn496_human ZNF496, Q96IT1 (Q96IT1 whole entry): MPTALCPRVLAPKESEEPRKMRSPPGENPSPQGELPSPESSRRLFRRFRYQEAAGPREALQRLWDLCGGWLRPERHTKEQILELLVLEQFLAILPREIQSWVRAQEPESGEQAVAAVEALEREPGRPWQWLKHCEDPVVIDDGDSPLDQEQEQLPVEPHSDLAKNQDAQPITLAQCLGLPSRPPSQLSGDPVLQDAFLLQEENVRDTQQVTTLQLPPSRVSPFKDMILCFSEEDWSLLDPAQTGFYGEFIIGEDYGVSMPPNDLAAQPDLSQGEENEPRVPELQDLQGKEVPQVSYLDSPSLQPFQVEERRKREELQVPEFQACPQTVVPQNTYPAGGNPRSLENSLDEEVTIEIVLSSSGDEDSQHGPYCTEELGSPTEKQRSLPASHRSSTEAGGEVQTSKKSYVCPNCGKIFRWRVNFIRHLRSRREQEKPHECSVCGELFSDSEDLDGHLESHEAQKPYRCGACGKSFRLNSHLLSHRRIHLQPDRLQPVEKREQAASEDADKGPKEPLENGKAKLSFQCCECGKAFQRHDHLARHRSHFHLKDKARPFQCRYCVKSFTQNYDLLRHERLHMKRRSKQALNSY

| Variant | effect of a mutation on the interaction |
| --- | --- |
| I678V | with no effect |

Variants of: B1
Conditions: with zsc22_human ZSCAN22, P10073
Chain of zsc22_human ZSCAN22, P10073 (P10073 whole entry): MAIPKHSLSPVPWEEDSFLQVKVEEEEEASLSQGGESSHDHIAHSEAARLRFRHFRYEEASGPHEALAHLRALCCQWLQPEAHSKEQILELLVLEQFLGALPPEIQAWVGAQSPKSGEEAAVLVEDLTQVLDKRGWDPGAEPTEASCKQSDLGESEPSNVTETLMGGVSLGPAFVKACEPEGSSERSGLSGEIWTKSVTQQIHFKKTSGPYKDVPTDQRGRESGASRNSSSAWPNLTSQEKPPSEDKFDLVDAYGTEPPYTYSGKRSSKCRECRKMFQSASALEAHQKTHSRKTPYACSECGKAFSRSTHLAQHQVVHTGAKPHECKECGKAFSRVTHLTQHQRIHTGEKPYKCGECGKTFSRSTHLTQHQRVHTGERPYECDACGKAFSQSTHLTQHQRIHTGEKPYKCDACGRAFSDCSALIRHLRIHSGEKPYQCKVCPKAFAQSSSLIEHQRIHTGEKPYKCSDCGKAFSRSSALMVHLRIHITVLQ

| Variant | effect of a mutation on the interaction |
| --- | --- |
| I678V | with no effect |

Variants of: B1
Conditions: with meox2_human MEOX2, P50222
Chain of meox2_human MEOX2, P50222 (P50222 whole entry): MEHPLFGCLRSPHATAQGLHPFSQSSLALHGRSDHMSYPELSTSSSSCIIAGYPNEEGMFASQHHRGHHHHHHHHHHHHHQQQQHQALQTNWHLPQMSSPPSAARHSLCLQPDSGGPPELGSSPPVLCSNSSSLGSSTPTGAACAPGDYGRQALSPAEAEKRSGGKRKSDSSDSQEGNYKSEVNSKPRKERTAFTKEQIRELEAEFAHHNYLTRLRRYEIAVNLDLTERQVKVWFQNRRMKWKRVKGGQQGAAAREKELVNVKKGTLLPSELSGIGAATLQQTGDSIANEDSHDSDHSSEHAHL

| Variant | effect of a mutation on the interaction |
| --- | --- |
| I678V | with no effect |

Variants of: B2
Conditions: with efhc2_human EFHC2, Q5JST6

| Variant | effect of a mutation on the interaction |
| --- | --- |
| N223S | with no effect |

Variants of: B3
Conditions: with astrc_human GRAMD1C

| Variant | effect of a mutation on the interaction |
| --- | --- |
| R178H | with no effect |
| R171C | disrupting interaction strength |

Variants of: B4
Conditions: with zbed1_human ZBED1, O96006

| Variant | effect of a mutation on the interaction |
| --- | --- |
| P77T | disrupting interaction strength |
| R159W | with no effect |
| R221H | disrupting interaction strength |
| A394S | disrupting interaction strength |
| M448T | with no effect |
| T508R | disrupting interaction strength |

Variants of: B5
Conditions: with bni3l_human BNIP3L

| Variant | effect of a mutation on the interaction |
| --- | --- |
| Y111H | with no effect |
| I164T | with no effect |

Variants of: B5
Conditions: with sgta_human SGTA

| Variant | effect of a mutation on the interaction |
| --- | --- |
| Y111H | with no effect |
| I164T | with no effect |

Variants of: B6
Conditions: with klhl2_human KLHL2, O95198

| Variant | effect of a mutation on the interaction |
| --- | --- |
| T539A | with no effect |
| R175Q | with no effect |
